Tested on: bax/bak-DKO MEFs
Assay: Death-inducing activity of transferrin and L-Gln under amino acid starvation
Format: cell-based, mouse
Conditions: with smFBS, 12 hrs
Description: To induce cell death, 80%-confluent cells were washed with PBS twice, and then cultured in amino acid-free medium, with specific factors added as indicated in individual experiments. Cell death was analyzed by propidium iodide (PI) staining coupled with microscopy or flow cytometry. Alternatively, cell viability was determined using the CellTiter-Glo luminescent Cell Viability Assay (Promega). In assays using WT MEFs, viability was calculated by normalizing ATP levels to cells treated with amino acid-starvation in the presence of 10% (v/v) diFBS, while in assays using bax/bak-DKO MEFs, ATP levels were normalized to cells treated with amino acid and FBS double starvation.

Molecule	induction of cell death in the presence of smFBS
bovine holo-transferrin: commercial iron-bound bovine holo-transferrin (Sigma) (protein, UniProt Q29443 20-704, looked up, iron-bound) Serotransferrin: DPERTVRWCTISTHEANKCASFRENVLRILESGPFVSCVKKTSHMDCIKAISNNEADAVTLDGGLVYEAGLKPNNLKPVVAEFHGTKDNPQTHYYAVAVVKKDTDFKLNELRGKKSCHTGLGRSAGWNIPMAKLYKELPDPQESIQRAAANFFSASCVPCADQSSFPKLCQLCAGKGTDKCACSNHEPYFGYSGAFKCLMEGAGDVAFVKHSTVFDNLPNPEDRKNYELLCGDNTRKSVDDYQECYLAMVPSHAVVARTVGGKEDVIWELLNHAQEHFGKDKPDNFQLFQSPHGKDLLFKDSADGFLKIPSKMDFELYLGYEYVTALQNLRESKPPDSSKDECMVKWCAIGHQERTKCDRWSGFSGGAIECETAENTEECIAKIMKGEADAMSLDGGYLYIAGKCGLVPVLAENYKTEGESCKNTPEKGYLAVAVVKTSDANINWNNLKDKKSCHTAVDRTAGWNIPMGLLYSKINNCKFDEFFSAGCAPGSPRNSSLCALCIGSEKGTGKECVPNSNERYYGYTGAFRCLVEKGDVAFVKDQTVIQNTDGNNNEAWAKNLKKENFEVLCKDGTRKPVTDAENCHLARGPNHAVVSRKDKATCVEKILNKQQDDFGKSVTDCTSNFCLFQSNSKDLLFRDDTKCLASIAKKTYDSYLGDDYVRAMTNLRQCSTSKLLEACTFHKP	induced robust cell death
bovine apo-transferrin: iron-free bovine apo-transferrin (protein, UniProt Q29443 20-704, looked up, iron-free) Serotransferrin: DPERTVRWCTISTHEANKCASFRENVLRILESGPFVSCVKKTSHMDCIKAISNNEADAVTLDGGLVYEAGLKPNNLKPVVAEFHGTKDNPQTHYYAVAVVKKDTDFKLNELRGKKSCHTGLGRSAGWNIPMAKLYKELPDPQESIQRAAANFFSASCVPCADQSSFPKLCQLCAGKGTDKCACSNHEPYFGYSGAFKCLMEGAGDVAFVKHSTVFDNLPNPEDRKNYELLCGDNTRKSVDDYQECYLAMVPSHAVVARTVGGKEDVIWELLNHAQEHFGKDKPDNFQLFQSPHGKDLLFKDSADGFLKIPSKMDFELYLGYEYVTALQNLRESKPPDSSKDECMVKWCAIGHQERTKCDRWSGFSGGAIECETAENTEECIAKIMKGEADAMSLDGGYLYIAGKCGLVPVLAENYKTEGESCKNTPEKGYLAVAVVKTSDANINWNNLKDKKSCHTAVDRTAGWNIPMGLLYSKINNCKFDEFFSAGCAPGSPRNSSLCALCIGSEKGTGKECVPNSNERYYGYTGAFRCLVEKGDVAFVKDQTVIQNTDGNNNEAWAKNLKKENFEVLCKDGTRKPVTDAENCHLARGPNHAVVSRKDKATCVEKILNKQQDDFGKSVTDCTSNFCLFQSNSKDLLFRDDTKCLASIAKKTYDSYLGDDYVRAMTNLRQCSTSKLLEACTFHKP	does not possess killing activity

— patent US20180110770A1, “FERROPTOSIS AND GLUTAMINOLYSIS INHIBITORS AND METHODS OF TREATMENT” (MEMORIAL SLOAN-KETTERING CANCER CENTER, priority 2015, published 2018)
